The results in this text go back to paper PMC3536650.

Holding throughout (experiment): cross-linking; engineered disulfide bridge in purified EF1; overnight with 400 µM DTNB (oxidised), 10 mM DTT (reduced), 30 mM DTT (re-reduced); SDS-PAGE with non-oxidizing sample buffer, Coomassie; yield from the change of the γ-band, oxidized against reduced; immunoblots against α and γ
In experiment [1] the target is E. coli F1-ATPase subunit α with αP281C, in the cysteine-free EF1 mutant FH4 (Escherichia coli) (UniProt P0ABB0).
The target of experiment [2] is E. coli F1-ATPase subunit α with αP280C, in the cysteine-free EF1 mutant GH54 (Escherichia coli) (UniProt P0ABB0).
Experiment [3] has as its target E. coli F1-ATPase subunit α with αE284C, in the cysteine-free EF1 mutant GH19 (Escherichia coli) (UniProt P0ABB0).

“E. coli F1-ATPase subunit γ with γK109C and γI279C, in the cysteine-free EF1 mutant FH4 (natural protein)” returned a cross-link yield in experiment [1] of 85%.
“E. coli F1-ATPase subunit γ with γK109C, γA213C and γG282C, in the cysteine-free EF1 mutant GH54 (natural protein)” returned a cross-link yield in experiment [2] of 90%.
With “E. coli F1-ATPase subunit γ with γK109C, γA213C and γL276C, in the cysteine-free EF1 mutant GH19 (natural protein)”, in experiment [3], the cross-link yield is greater than 95%.
